Data taken from US20050202010A1, “Method of treatment and bioassay involving macrophage migration inhibitory factor (MIF) as cardiac-derived myocardial depressant factor” (priority 2003, published 2005).

Experiments:
[1] = system: isolated wild type hearts; assay: Langendorff perfusion with rMIF, wild type hearts; set-up: species or system mouse; details: WT + rMIF 20 ng/ml
Procedure: (§1) Ex vivo cardiac function determination by Langendorff Mouse heart function was determined using the Langendorff assay procedure. Briefly, 200 Units heparin sulfate were injected intraperitoneally and the mice were sacrificed 20 minutes later. The heart was immediately removed and placed on ice in Krebs-Henseleit Buffer ([…], 118 mM NaCl, 4.7 mM KCL, 1.2 mM KH2PO4, 1.2 mM MgSO4, 2.5 mM CaCl2, 11.1 mM glucose, pH 7.4, which was prepared fresh with demineralized, deionized water and bubbled with 95% O2 and 5% CO2(pO2 590 mmHg, pCO2 38 mmHg)). The aorta was cannulated with PE50 tubing, the heart perfused in a retrograde manner through the aortic root with pre-filtered, oxygenated Krebs-Henseleit Buffer at a constant flow rate of 1.5 ml/minute (constant temperature of 37° C., 100 ml recirculating volume). The heart was placed in a water-jacketed chamber to maintain constant temperature and humidity. Intramedic polyethylene tubing (PE60), connected to a Statham pressure transducer, was inserted into the left ventricle (LV) to measure LV pressure. Temperature was monitored using a 27 gauge thermistor needle inserted into the LV muscle. […] Following stabilization, LV pressure and its first derivative (dP/dt), heart rate, and coronary perfusion were measured simultaneously with a multi-channel Grass 7D polygraph (Grass Instruments, Quincy, Mass.). Ventricular performance as a function of coronary perfusion was determined for all hearts by plotting peak systolic LV pressure and ±dP/dtmax values against incremental increases in coronary flow rate.
(§2) MIF has direct cardiodepressant effects in TNFR−/− mice to the same extent as in WT mice.

[2] = system: isolated TNFR−/− hearts; assay: Langendorff perfusion with rMIF, TNFR−/− hearts; set-up: species or system mouse
Procedure: as §1, §2

[3] = system: spontaneously beating normal mouse hearts (C57BL/6J); assay: Langendorff preparation, hearts perfused with rMIF (C57BL/6J); details: C57BL/6J hearts, 20 ng/ml rMIF, 1.5 ml/m
Procedure: Determination of cardiac function in response to rMIF. C57BL/6J and C3H/HeJ mice were used in the Langendorff assays. Briefly, 200 U heparin sulfate was given i.p., the mice sacrificed 20 m later, and the heart immediately removed and placed on ice in Krebs-Hanseleit Buffer ([…], 118 mM NaCl, 4.7 mM KCL, 1.2 mM KH2PO4, 1.2 mM MgSO4, 2.5 mM CaCl2, 11.1 mM glucose, pH 7.4, which was prepared fresh with demineralized, deionized water and bubbled with 95% O2 and 5% CO2 (PO2 590 mmHg, pCO2 38 mmHg)). The aorta was cannulated with PE50 tubing, the heart perfused in a retrograde manner through the aortic root with prefiltered, oxygenated Krebs-Hanseleit Buffer at a constant flow rate of 1.5 ml/m (T 37° C.) and a recirculating volume of 100 ml. The heart was placed in a water-jacketed chamber to maintain constant temperature and humidity. PE60 intratnedic polyethylene tubing was connected to a Statham pressure transducer inserted into the left ventricle (LV) to measure LV pressure. Temperature was monitored using a 27 G thertnistor needle inserted into the LV muscle. […] Following stabilization, LV pressure and its first derivative (dP/dt), heart rate, and coronary perfusion were measured simultaneously with a multichannel Grass 7D polygraph (Grass Instruments, Quincy, M A). Cardiac function for all hearts was determined by plotting peak systolic LV pressure and ±dP/dt,Ia, values against changes in coronary flow rate.
MIF induces systolic and diastolic cardiac dysfunction. […] Responses to MIF were determined in hearts from both C57BL/6J mice, and C3H/HeJ mice. C3H/HeJ mice are resistant to endotoxin (41-43), therefore controlling for the possibility that any depression observed might be due to trace endotoxin in the perfusate. Table 2 illustrates the responses of both mouse strains to retrograde aortic perfusion at 1.5 ml/m with control perfusate or perfusate containing 20 ng/ml recombinant MIF. Perfusion with MIF led to a significant decrease in LVP, +dP/dtmax, and −dP/dt max in both mouse strains. FIG. 4 illustrates the effect of MIF over a range of coronary flow rates. […]

B1: rMIF: recombinant human macrophage migration inhibitory factor added to the heart perfusate at 20 ng/ml (protein, UniProt P14174 2-115, looked up)
Macrophage migration …: PMFIVNTNVPRASVPDGFLSELTQQLAQATGKPPQYIAVHVVPDQLMAFGGSSEPCALCSLHSIGKIGGAQNRSYSKLLCGLLAERLRISPDRVYINYYDMNAANVGWNNSTFA
- +dP/dt max ([1]; n = 5): 1400 ± 158 mmHg/sec
- CPP ([1]; n = 5): 84.8 ± 8.6 mmHg
- CVR ([1]; n = 5): 56.5 ± 5.7 mmHg
- DR ([1]; n = 5): 1.32 ± 0.06
- HR ([1]; n = 5): 338 ± 10 bpm
- RT90 ([1]; n = 5): 75.2 ± 2.9 ms
- TPP ([1]; n = 5): 71.6 ± 1.6 ms
- Time to Max +dP/dt ([1]; n = 5): 49.2 ± 0.5 ms
- Time to Max −dP/dt ([1]; n = 5): 52.4 ± 1.7 ms
- dP40 ([1]; n = 5): 1240 ± 174 mmHg/sec
- −dP/dt max ([1]; n = 5): 1070 ± 146 mmHg/sec
- LVP ([1]; n = 5, mean ± SE): 55.6 ± 5.9 mmHg
- CPP ([2]; TNF KO + rMIF 20 ng/ml, n = 4): 91.5 ± 6.6 mmHg
- CVR ([2]; TNF KO + rMIF 20 ng/ml, n = 4): 61.0 ± 4.4 mmHg
- DR ([2]; TNF KO + rMIF 20 ng/ml, n = 4): 1.30 ± 0.10
- HR ([2]; TNF KO + rMIF 20 ng/ml, n = 4): 335 ± 20 bpm
- RT90 ([2]; TNF KO + rMIF 20 ng/ml, n = 4): 71.3 ± 4.2 ms
- TPP ([2]; TNF KO + rMIF 20 ng/ml, n = 4): 67.0 ± 2.4 ms
- Time to Max +dP/dt ([2]; TNF KO + rMIF 20 ng/ml, n = 4): 47.0 ± 2.4 ms
- Time to Max −dP/dt ([2]; TNF KO + rMIF 20 ng/ml, n = 4): 47.0 ± 2.4 ms
- dP40 ([2]; TNF KO + rMIF 20 ng/ml, n = 4): 1613 ± 105 mmHg/sec
- −dP/dt max ([2]; TNF KO + rMIF 20 ng/ml, n = 4): 1413 ± 151 mmHg/sec
- LVP ([2]; TNF KO + rMIF 20 ng/ml, n = 4, mean ± SE): 66.0 ± 4.7 mmHg
- +dP/dt max ([2]; TNFR−/− + rMIF 20 ng/ml, n = 4): 1800 ± 100 mmHg/sec
- onset of cardiac dysfunction (systolic and diastolic) ([2]; isolated hearts (Langendorf prep), both TNFR−/− and wild type mice): ≤ 20 min
- +dP/dt max ([3]; n = 10): 1920 ± 89 mm Hg/see
- −dP/dt max ([3]; n = 10): 1545 ± 122 mm Hg/sec
- LVP ([3]; n = 10, mean peak): 77.9 ± 5.1 mm Hg
